Reference: US20100015130A1

Key:
[1] = target: GSK3β as used in the surface plasmon resonance (SPR) binding assays (Homo sapiens (Human)) (UniProt P49841); assay: SPR, peptide at 25 µM on GSK3β
[2] = target: GSK3β as used in the surface plasmon resonance (SPR) binding assays (Homo sapiens (Human)) (UniProt P49841); assay: SPR, stoichiometry inferred from the response

Chain of GSK3β as used in the surface plasmon resonance (SPR) binding assays (Homo sapiens (Human)) (P49841 whole entry, form in doubt): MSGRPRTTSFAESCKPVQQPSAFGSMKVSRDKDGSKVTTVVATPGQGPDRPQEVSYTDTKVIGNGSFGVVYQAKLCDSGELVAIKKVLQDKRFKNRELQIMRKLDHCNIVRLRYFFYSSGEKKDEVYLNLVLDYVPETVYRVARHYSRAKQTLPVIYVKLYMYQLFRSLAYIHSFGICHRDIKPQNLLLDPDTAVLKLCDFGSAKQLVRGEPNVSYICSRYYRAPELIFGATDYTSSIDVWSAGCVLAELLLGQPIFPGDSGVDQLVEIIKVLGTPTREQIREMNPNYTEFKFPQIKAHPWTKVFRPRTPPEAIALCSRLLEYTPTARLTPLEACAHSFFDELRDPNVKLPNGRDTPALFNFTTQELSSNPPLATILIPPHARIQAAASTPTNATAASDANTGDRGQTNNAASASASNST

L803-MTS (commercial GSK3β peptide inhibitor, Calbiochem)
percent theoretical maximal response [1]: 259%
peptide-protein ratio (peptide:protein) [2]: 2
